Measurements from paper PMC9972007.
“And” between values parts separate entries of the source, which are not always exact repeats. Identical values can stand only once.

Molecular target: Optineurin (OPTN) (Homo sapiens, UniProt Q96CV9 1-577)
Assay: tryptophan fluorescence quenching titration

Chain of Optineurin (OPTN) (Q96CV9 whole entry): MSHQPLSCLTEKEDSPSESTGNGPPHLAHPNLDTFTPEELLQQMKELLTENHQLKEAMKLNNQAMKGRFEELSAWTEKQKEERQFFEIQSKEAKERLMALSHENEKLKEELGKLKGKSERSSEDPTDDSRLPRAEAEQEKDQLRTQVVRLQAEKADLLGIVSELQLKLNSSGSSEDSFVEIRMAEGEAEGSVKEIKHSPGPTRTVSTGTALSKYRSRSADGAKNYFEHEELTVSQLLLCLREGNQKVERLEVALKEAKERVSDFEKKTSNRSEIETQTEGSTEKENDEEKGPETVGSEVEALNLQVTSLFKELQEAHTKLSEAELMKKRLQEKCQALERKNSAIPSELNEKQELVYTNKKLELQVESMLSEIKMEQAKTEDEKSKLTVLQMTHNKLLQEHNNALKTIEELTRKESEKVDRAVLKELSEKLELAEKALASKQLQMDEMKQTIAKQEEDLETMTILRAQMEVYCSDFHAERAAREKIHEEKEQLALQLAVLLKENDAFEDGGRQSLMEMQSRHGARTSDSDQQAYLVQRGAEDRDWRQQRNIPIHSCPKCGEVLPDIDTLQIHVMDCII

Binder: UGUGUGUGUGUGUGUGUGUGUGUG (ssRNA) [UG-repeat RNA 24-mer]
- Kd: 4.61 µM and 4.49 µM
